Laboratory results published in patent US20180134794A1.
Like-named read-outs stand apart in the source and are kept apart here.

Tests used:
[1] = biological target: human MET (c-Met, HGFR) endogenously expressed on cell lines (human) (UniProt P08581)
[2] = biological target: human MET (c-Met, HGFR) endogenously expressed on cell lines (human) (UniProt P08581); remark: listed apart in the source

Sequence of human MET (c-Met, HGFR) endogenously expressed on cell lines (human) (P08581 25-1390): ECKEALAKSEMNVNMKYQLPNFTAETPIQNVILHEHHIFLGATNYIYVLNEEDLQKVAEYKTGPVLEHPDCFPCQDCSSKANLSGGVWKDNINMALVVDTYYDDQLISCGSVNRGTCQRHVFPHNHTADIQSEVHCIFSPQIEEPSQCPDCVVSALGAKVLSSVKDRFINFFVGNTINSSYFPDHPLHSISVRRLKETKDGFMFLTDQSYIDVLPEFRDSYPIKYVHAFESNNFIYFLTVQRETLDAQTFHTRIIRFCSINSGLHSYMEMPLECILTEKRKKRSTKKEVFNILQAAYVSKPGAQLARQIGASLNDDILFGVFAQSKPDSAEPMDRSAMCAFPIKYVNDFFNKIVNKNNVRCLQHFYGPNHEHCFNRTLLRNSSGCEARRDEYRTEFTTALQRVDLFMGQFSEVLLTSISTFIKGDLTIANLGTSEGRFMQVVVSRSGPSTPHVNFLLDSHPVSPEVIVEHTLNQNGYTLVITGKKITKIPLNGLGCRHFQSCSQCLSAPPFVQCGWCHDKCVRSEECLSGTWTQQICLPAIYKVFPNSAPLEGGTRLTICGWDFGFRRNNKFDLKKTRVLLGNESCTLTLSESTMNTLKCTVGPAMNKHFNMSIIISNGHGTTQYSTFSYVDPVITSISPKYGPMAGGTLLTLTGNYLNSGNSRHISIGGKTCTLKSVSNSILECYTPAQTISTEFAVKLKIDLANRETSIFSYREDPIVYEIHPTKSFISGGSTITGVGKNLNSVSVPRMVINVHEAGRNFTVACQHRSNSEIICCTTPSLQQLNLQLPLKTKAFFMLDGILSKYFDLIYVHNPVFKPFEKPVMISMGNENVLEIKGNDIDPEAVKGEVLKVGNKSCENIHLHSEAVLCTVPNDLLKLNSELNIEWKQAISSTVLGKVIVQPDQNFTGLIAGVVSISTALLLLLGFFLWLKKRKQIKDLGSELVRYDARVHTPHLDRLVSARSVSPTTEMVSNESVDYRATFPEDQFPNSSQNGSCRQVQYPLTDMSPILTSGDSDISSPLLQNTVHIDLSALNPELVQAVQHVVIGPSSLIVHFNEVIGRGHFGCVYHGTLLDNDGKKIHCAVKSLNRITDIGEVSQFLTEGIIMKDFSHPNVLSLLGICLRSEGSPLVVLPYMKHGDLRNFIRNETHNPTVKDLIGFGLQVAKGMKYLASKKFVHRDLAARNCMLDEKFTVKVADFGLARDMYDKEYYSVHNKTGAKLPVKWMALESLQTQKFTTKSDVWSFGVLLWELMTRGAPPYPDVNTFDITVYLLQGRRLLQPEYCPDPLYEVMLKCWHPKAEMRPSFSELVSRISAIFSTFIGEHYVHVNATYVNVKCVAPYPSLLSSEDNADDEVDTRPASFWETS

Substance: monovalent anti-MET antibody (heavy and light chain variable sequences of MetMab)
- IC50 (read off the curve), inhibition of HGF-induced SRE-luciferase signal [1]: 0.4 nM
- IC50 (read off the curve), inhibition of HGF-induced SRE-luciferase signal [2]: 0.06 nM
